Our source for the Kd and amount bound relative to the mutant peptide values is PMC7809020.

The target of test [1] is ATM (biolayer interferometry) (UniProt Q13315). The experiment in a line: BLI.
Test [2] has the same target. The experiment in a line: BLI; in vitro; SPOP peptide bound to ATM, measured by diffracted light wavelength.

Sequence of SPOP wild-type peptide (O43791 whole entry, looked up, tested part not stated): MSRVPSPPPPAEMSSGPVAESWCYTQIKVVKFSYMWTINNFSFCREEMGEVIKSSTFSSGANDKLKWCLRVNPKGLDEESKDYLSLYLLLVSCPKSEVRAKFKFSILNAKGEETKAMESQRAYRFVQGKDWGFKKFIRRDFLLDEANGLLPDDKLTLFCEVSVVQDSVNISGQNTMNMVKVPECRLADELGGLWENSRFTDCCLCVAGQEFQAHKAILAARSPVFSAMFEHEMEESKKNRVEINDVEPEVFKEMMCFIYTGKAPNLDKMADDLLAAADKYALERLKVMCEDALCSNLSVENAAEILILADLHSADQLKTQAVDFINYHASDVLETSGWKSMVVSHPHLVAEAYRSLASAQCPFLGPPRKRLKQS

With “SPOP wild-type peptide (from UniProt O43791)”, the Kd in test [1] stood at 0.0698 µM.
For “SPOP S119N mutant peptide (from UniProt O43791)”, the Kd in test [1] is 45.5 µM.
In test [2], SPOP wild-type peptide had an amount bound relative to the mutant peptide of 2 fold.
